Results from patent publication US20190062383A1 (Janssen / Centocor, published 2019).

Target: KV1N2 (OsK1-Fc fusion) (Orthochirus scrobiculosus)
Assay: FACS competition with agitoxin2-cys-TAMRA

B1: hKv1.3 E3 loop/hKv1.5 chimera (receptor)
chain: MEIALVPLENGGAMTVRGGDEARAGCGQATGGELQCPPTAGLSDGPKEPAPKGRGAQRDADSGVRPLPPLPDPGVRPLPPLPEELPRPRRPPPEDEEEEGDPGLGTVEDQALGTASLHHQRVHINISGLRFETQLGTLAQFPNTLLGDPAKRLRYFDPLRNEYFFDRNRPSFDGILYYYQSGGRLRRPVNVSLDVFADEIRFYQLGDEAMERFREDEGFIKEEEKPLPRNEFQRQVWLIFEYPESSGSARAIAIVSVLVILISIITFCLETLPEFRDERELLRHPPAPHQPPAPAPGANGSGVMAPPSGPTVAPLLPRTLADPFFIVETTCVIWFTFELLVRFFACPSKAGFSRNIMNIIDVVAIFPYFITLGTELAEQQPGGGGGGQNGQQAMSLAILRVIRLVRVFRIFKLSRHSKGLQILGKTLQASMRELGLLIFFLFIGVILFSSAVYFAEADDPTSGFSSIPDAFWWAVVTMTTVGYGDMHPVTIGGKIVGSLCAIAGVLTIALPVPVIVSNFNYFYHRETDHEEPAVLKEEQGTQSQGPGLDRGVQRKVSGSRGSFCKAGGTLENADSARRGSCPLEKCNVKAKSNVDLRRSLYALCLDTSRETDL
B1: binds.
